Results: patent publication US20110052582A1 (Hoffmann-La Roche, published 2011)
Changes are numbered by the printed parent chain. Each block holds one binder with its values, some of them ahead of it.

Legend:
[1] = target: T1, Human CDCP1 (CUB domain containing protein 1) on DU-145 cells (human, UniProt Q9H5V8 30-836); assay: cell-based or functional assay
T1 sequence: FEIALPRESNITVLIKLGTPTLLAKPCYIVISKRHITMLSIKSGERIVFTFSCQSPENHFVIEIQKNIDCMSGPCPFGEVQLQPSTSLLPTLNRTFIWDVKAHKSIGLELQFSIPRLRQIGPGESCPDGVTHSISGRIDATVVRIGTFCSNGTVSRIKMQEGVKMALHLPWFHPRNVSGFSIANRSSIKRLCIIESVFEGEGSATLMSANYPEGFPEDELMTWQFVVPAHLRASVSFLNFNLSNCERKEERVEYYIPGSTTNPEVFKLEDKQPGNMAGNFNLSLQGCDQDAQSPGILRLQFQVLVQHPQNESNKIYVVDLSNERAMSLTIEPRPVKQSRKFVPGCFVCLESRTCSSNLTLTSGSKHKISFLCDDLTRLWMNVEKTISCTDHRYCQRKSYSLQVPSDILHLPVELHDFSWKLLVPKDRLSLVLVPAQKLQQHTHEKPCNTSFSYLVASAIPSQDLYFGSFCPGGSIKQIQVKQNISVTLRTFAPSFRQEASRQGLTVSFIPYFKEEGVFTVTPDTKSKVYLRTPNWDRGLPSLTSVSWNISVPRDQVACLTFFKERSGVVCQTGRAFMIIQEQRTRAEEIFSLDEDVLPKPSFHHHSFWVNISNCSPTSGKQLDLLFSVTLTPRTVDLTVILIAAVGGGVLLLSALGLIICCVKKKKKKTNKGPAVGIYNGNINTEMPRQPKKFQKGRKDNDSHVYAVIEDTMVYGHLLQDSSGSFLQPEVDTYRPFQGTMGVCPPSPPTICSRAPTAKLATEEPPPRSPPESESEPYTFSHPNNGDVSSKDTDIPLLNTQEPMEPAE

[2] = target: T2, Soluble CDCP1 extracellular domain (CDCP1-ECD) (SEQ ID NO:30) fused to Streptavidin Binding Protein (SBP) (human, UniProt Q9H5V8 30-663); assay: ELISA on captured SBP-CDCP1-ECD, ratio relative to chimeric CUB4 (chHC4)
T2 construct: also called SBP-CDCP1-ECD
T2 sequence: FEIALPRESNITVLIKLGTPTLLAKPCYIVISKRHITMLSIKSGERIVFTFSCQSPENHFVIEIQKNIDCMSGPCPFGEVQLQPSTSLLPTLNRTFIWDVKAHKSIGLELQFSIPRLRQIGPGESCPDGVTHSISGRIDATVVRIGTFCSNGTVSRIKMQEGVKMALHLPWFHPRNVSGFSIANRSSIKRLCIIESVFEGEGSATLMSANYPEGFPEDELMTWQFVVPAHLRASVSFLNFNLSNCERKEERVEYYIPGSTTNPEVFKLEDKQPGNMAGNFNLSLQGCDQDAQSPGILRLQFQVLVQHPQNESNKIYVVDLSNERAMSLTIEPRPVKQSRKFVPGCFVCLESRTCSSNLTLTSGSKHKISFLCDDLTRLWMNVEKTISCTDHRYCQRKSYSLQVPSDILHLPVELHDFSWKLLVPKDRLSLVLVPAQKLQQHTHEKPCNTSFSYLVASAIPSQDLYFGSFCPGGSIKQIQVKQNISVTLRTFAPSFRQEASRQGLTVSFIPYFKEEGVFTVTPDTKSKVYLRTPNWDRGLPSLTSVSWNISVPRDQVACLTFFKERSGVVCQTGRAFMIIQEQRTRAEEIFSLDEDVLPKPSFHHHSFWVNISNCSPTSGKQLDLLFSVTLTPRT
How it was run: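 Streptavidin plates coated overnight at 2–8° C with SBP-CDCP1-ECD HEK293 supernatant (1:15–1:40). Antibodies, undiluted or 12-step dilution, bound 90 min at room temperature; HRP anti-human IgG 1 h, ABTS read at 405/492 nm, signal expressed relative to chimeric chHC4 reference.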

[3] = target: T3, extracellular-domain-(ECD)-comprising fragment of human CDCP1 of SEQ ID NO: 30 (human, UniProt Q9H5V8 30-663); assay: SPR (Biacore T100), antibody captured, CDCP1 ECD as analyte, 25 C, Langmuir 1:1
T3 construct: also called CDCP1 ECD; CDCP1-ECD
T3 sequence: T2 sequence
Method: After conjugation, different anti-CDCP1 antibodies were injected at 25° C. at a flow rate of 5 μL/min, followed by a dilution series (0 nM to 1000 nM) of CDCP1 ECD at 30 μL/min. As running buffer for the binding experiment PBS/0.1% BSA was used. The chip was then regenerated with a 60s pulse of 10 mM glycine-HCl, pH 2.0 solution.
Calculation of thermodynamic parameters (KD, binding constant) and kinetic parameters (kₒₙ rate, koff rate) were calculated using a Langmuir 1:1 binding model.

Percent (%) stimulation of CDCP1 phosphorylation in DU-145 cells (Western blot, densitometry) [1]: 100%
B1: chimeric (chHC4) CUB4 antibody comprising human constant region and mouse VH and VL (antibody, human IgG1, V domains shown)
VH: EVQLVESGGDLVKPGGSLKLSCAASGFTFNSYGMSWVRQTPDKRLEWVATISSGGSYTYYPDSVKGRFTISRDNAKNTLYLQMSSLKSEDTAMYYCARHPDYDGVWFAYWGQGTLVTVSA
VL: QIVLTQSPAIMSASPGEKVTMTCSVSSSVFYVHWYQQKSGTSPKRWIYDTSKLASGVPARFSGSGSGTSYSLTISSMEAEDAATYYCQQWNSNPPTFGGGTKLEIK

binding result [2]: no binding
B2: chHC4 / hLC4-I (antibody, V domains shown)
VH: B1 VH
VL: EIVMTQSPATLSLSPGERATLSCRASSSVFYLSWYQQKPGQAPRLWIYDTSKLASGIPARFSGSGSGTDFTLTISSLQPEDFAVYYCQQWNSNPPTFGGGTKVEIK

relative binding ratio [2]: 0.24
B3: chHC4 / hLC4-f (antibody, V domains shown)
VH: B1 VH
VL: DIQMTQSPSSLSASVGDRVTITCSVSSSVFYVHWYQQKPGKAPKLLIYDTSKLASGVPSRFSGSGSGTDYTFTISSLQPEDIATYYCQQWNSNPPTFGGGTKVEIK

Kd [3]: 5.6 nM
koff [3]: 0.001 s⁻¹
kon [3]: 180000 M⁻¹ s⁻¹
t½ diss. [3]: 11.2 min
relative binding ratio [2]: 0.51
B4: Humanized CUB4 Antibody No. 91 (antibody, IgG1, V domains shown)
VH: EVQLVESGGGLVQPGGSLRLSCAASGFTFNSYGMSWVRQAPGKGLEWVATISSGGSYKYYVDSVKGRFTISRDNAKNSLYLQMNSLRAEDTAVYYCARHPDYDGVWFAYWGQGTLVTVSS
VL: B2 VL with M4L, R24S, A25V, L32V, S33H, W46L, Q78E
notes: Only variable domains are tied to the antibody; Human constant region, preferably IgG1; also called hHC4-H / hLC-a

binding result [2]: no binding
B5: hHC4-b / hLC4-d (antibody, V domains shown)
VH: B4 VH with Q13K, G33S, S35N, A49S, T50S, K58I, V61A
VL: B2 VL with L13V, R24S, A25V, L32V, S33H, W46L, D69E, F70Y, P79S

relative binding ratio [2]: 0.07
B6: hHC4-03 / hLC4-c (antibody, V domains shown)
VH: B4 VH with V5L, A49S, T50A, K58T, V61P, A75S, S78T, R98K
VL: B2 VL with L13V, R24S, A25V, L32V, S33H, W46L, D69E, P79S

relative binding ratio [2]: 0.41
B7: hHC4-04 / hLC4-d (antibody, V domains shown)
VH: B4 VH with V5L, A49S, K58T, V61P, A75S, S78T
VL: B2 VL with L13V, R24S, A25V, L32V, S33H, W46L, D69E, F70Y, P79S

relative binding ratio [2]: 0.45
B8: hHC4-d / hLC4-c (antibody, V domains shown)
VH: B4 VH with V5L, A49S, K58T, V61P, A75S, S78T, R98K
VL: B2 VL with L13V, R24S, A25V, L32V, S33H, W46L, D69E, P79S

binding result [2]: no binding
B9: hHC4-K / hLC4-d (antibody, V domains shown)
VH: B4 VH with Q13K, A49S, T50S, K58I, V61A
VL: B2 VL with L13V, R24S, A25V, L32V, S33H, W46L, D69E, F70Y, P79S

relative binding ratio [2]: 0.04
B10: hHC4-07 / hLC4-d (antibody, V domains shown)
VH: B4 VH with V5L, G33A, A49S, K58T, V61P, A75S, S78T, R98K
VL: B2 VL with L13V, R24S, A25V, L32V, S33H, W46L, D69E, F70Y, P79S

relative binding ratio [2]: 0.07
B11: hHC4-03 / hLC4-d (antibody, V domains shown)
VH: B4 VH with V5L, A49S, T50A, K58T, V61P, A75S, S78T, R98K
VL: B2 VL with L13V, R24S, A25V, L32V, S33H, W46L, D69E, F70Y, P79S

relative binding ratio [2]: 0.34
B12: hHC4-H / hLC4-d (antibody, V domains shown)
VH: B4 VH
VL: B2 VL with L13V, R24S, A25V, L32V, S33H, W46L, D69E, F70Y, P79S
notes: also called Humanized CUB4 Antibody No. 124

relative binding ratio [2]: 0.07
B13: hHC4-I / hLC4-b (antibody, V domains shown)
VH: B4 VH with V5L, G33A, A49S, T50A, K58T, V61A, A75S, S78T, R98K
VL: B2 VL with M4L, R24S, A25V, L32V, S33H, W46L, F70Y, Q78E

relative binding ratio [2]: 0.41
B14: hHC4-d / hLC4-d (antibody, V domains shown)
VH: B4 VH with V5L, A49S, K58T, V61P, A75S, S78T, R98K
VL: B2 VL with L13V, R24S, A25V, L32V, S33H, W46L, D69E, F70Y, P79S

relative binding ratio [2]: 0.44
B15: hHC4-H / hLC4-c (antibody, V domains shown)
VH: B4 VH
VL: B2 VL with L13V, R24S, A25V, L32V, S33H, W46L, D69E, P79S
notes: also called Humanized CUB4 Antibody No. 113

binding result [2]: no binding
B16: hHC4-b / hLC4-c (antibody, V domains shown)
VH: B4 VH with Q13K, G33S, S35N, A49S, T50S, K58I, V61A
VL: B2 VL with L13V, R24S, A25V, L32V, S33H, W46L, D69E, P79S

relative binding ratio [2]: 0.04
B17: hHC4-07 / hLC4-c (antibody, V domains shown)
VH: B4 VH with V5L, G33A, A49S, K58T, V61P, A75S, S78T, R98K
VL: B2 VL with L13V, R24S, A25V, L32V, S33H, W46L, D69E, P79S

relative binding ratio [2]: 0.33
B18: hHC4-04 / hLC4-c (antibody, V domains shown)
VH: B4 VH with V5L, A49S, K58T, V61P, A75S, S78T
VL: B2 VL with L13V, R24S, A25V, L32V, S33H, W46L, D69E, P79S

relative binding ratio [2]: 0.8
B19: hHC4-d / hLC4-M (antibody, V domains shown)
VH: B4 VH with V5L, A49S, K58T, V61P, A75S, S78T, R98K
VL: B2 VL with M4L, L21M, R24G, S33H, Q41L, A59D, S76R, Q78E

relative binding ratio [2]: 0.56
B20: hHC4-d / hLC4-L (antibody, V domains shown)
VH: B4 VH with V5L, A49S, K58T, V61P, A75S, S78T, R98K
VL: B2 VL with M4L, L21M, S33H, Q78E

relative binding ratio [2]: 0.34
B21: hHC4-d / hLC4-a (antibody, V domains shown)
VH: B4 VH with V5L, A49S, K58T, V61P, A75S, S78T, R98K
VL: B2 VL with M4L, R24S, A25V, L32V, S33H, W46L, Q78E

Kd [3]: 5.4 nM
koff [3]: 0.0011 s⁻¹
kon [3]: 190000 M⁻¹ s⁻¹
t½ diss. [3]: 11 min
relative binding ratio [2]: 0.53
B22: Humanized CUB4 Antibody No. 102 (antibody, IgG1, V domains shown)
VH: B4 VH
VL: B2 VL with M4L, R24S, A25V, L32V, S33H, W46L, F70Y, Q78E
notes: Only variable domains are tied to the antibody; Human constant region, preferably IgG1; also called hHC4-H / hLC-b

relative binding ratio [2]: 0.49
B23: hHC4-d / hLC4-L2 (antibody, V domains shown)
VH: B4 VH with V5L, A49S, K58T, V61P, A75S, S78T, R98K
VL: B2 VL with M4L, L21M, R24S, A25V, S33H, Q78E

relative binding ratio [2]: 0.52
B24: hHC4-d / hLC4-K (antibody, V domains shown)
VH: B4 VH with V5L, A49S, K58T, V61P, A75S, S78T, R98K
VL: B2 VL with M4L, S33H, Q78E

relative binding ratio [2]: 0.38
B25: hHC4-d / hLC4-b (antibody, V domains shown)
VH: B4 VH with V5L, A49S, K58T, V61P, A75S, S78T, R98K
VL: B2 VL with M4L, R24S, A25V, L32V, S33H, W46L, F70Y, Q78E
